Experimental data taken from patent US20050136004A1 (ZymoGenetics, published 2005).

T1: IL-20RA/IL-20RB heterodimeric receptor (human), on cells (human, UniProt Q9UHF4 30-553; Q6UXL0 30-311)
T1 sequence 1: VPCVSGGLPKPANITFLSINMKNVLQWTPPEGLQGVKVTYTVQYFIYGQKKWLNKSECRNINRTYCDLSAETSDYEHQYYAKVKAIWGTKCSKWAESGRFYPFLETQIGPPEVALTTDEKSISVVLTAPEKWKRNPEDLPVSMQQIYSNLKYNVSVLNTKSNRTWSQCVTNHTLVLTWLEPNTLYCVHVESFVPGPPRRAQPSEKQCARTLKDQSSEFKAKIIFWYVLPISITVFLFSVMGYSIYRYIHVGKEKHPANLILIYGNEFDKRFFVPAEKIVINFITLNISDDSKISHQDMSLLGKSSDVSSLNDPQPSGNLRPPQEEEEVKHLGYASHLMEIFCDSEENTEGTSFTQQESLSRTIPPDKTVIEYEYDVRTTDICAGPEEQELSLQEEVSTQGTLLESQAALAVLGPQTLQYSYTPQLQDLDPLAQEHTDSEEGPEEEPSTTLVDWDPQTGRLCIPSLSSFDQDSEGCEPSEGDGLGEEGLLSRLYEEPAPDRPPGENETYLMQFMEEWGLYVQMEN
T1 sequence 2: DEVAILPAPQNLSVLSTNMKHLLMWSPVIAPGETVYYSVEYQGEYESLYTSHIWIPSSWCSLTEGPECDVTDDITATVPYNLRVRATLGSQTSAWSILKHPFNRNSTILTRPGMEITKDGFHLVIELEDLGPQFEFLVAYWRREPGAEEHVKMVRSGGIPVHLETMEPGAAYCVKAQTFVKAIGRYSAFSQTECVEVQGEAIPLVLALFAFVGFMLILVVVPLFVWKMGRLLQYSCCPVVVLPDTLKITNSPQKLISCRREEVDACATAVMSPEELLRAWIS

T2: IL-20RA (human), on cells (human, UniProt Q9UHF4 30-553)
T2 construct: This id covers the subunit expressed alone on BHK or BaF3/KZ134 transfectants; It is also used for endogenous IL-20RA on human monocytic cells and in human lung tissue; also called ZcytoR7; IL-20RA only
T2 sequence: T1 sequence 1

T3: IL-20RB (human), on cells (human, UniProt Q6UXL0 30-311)
T3 construct: This id covers the subunit expressed alone on BHK or BaF3/KZ134 transfectants; It is also used for endogenous IL-20RB on THP-1 cells; also called DIRS1; pDIRS1
T3 sequence: T1 sequence 2

B1: human IL-20-Bv (purified mature recombinant human IL-20 produced in Baculovirus) (ligand)
chain: LKTLNLGSCVIATNLQEIRNGFSDIRGSVQAKDGNIDIRILRRTESLQDTKPANRCCLLRHLLRLYLDRVFKNYQTPDHYTLRKISSLANSFLTIKKDLRLCHAHMTCHCGEEAMKKYSQILSHFEKLEPQAAVVKALGELDILLQWMEETE
B2: IL-20 (human IL-20, mature polypeptide; preparation or host not specified) (ligand)
chain: B1 chain
notes: also called Zcyto10; IL-20 protein

How the values were obtained:
[1] = biological target: T1, IL-20RA/IL-20RB heterodimeric receptor …; experiment: cell-based or functional assay
[2] = biological target: T1, IL-20RA/IL-20RB heterodimeric receptor …; experiment: 125I-IL-20 binding on BHK cells expressing IL-20RA and IL-20RB
Procedure: (§1) The specificity and affinity of IL-20 for its receptor was determined using BHK cells stably transfected with IL-20RA, IL-20RB or both receptor subunits. […] Binding of ¹²⁵I-labeled IL-20 was eliminated in the presence of 100-fold excess of unlabeled IL-20 but not with 100-fold excess of the unrelated cytokine, IL-21.

[3] = biological target: T2, IL-20RA (human), on cells; experiment: radiolabeled ligand binding on stably transfected BHK cells
Procedure: as §1

[4] = biological target: T3, IL-20RB (human), on cells; experiment: as above
Procedure: as §1

Binder	Alamar Blue proliferation of BaF3/KZ134/IL-20RA/IL-20RB cells at 1 pM IL-20 [1] [fold over background]	Alamar Blue proliferation of BaF3/KZ134/IL-20RA/IL-20RB cells at 1 nM IL-20 [1] [fold over background]	Kd [2] [nM]	binding result [3]	binding result [4]
B1	2	~30			
B2			~1.5	no binding	no binding
